B1: HDV Ribozyme (parent)
chain: GGCCGGCAUGGUCCCAGCCUCCUCGCUGGCGCCGGCUGGGCAACAUUCCGAGGGGACCGUCCCCUCGGUAAUGGCGAAUGGGACCCA

Variants of: B1
Assay: self-cleavage, relative activity (ratio to wild type); higher = more cleavage; co-transcriptional

| Variant | self-cleavage |
| --- | --- |
| G82C A87C | 0.28 |
| U20A G40C | 0.178 |
| U27A C48G | 1.09 |
| A51G G52C | 0.789 |
| C33G G74U | 0.173 |
| A43C C58U | 0.671 |
| G34A C84G | 0.104 |
| G25C U47G | 0.119 |
| A16G G55C | 1.2 |
| C33A C63U | 0.503 |
| A45C G81A | 0.0959 |
| C14A G59C | 0.739 |
| G2C G10A | 0.145 |
| G40C A77U | 0.128 |
| U37C G54A | 1.11 |
| G53U U72G | 0.554 |
| C33A G39U | 0.138 |
| C19A C49A | 0.0504 |
| C15G C61G | 0.178 |
| C22A G81U | 0.0536 |
| C7G A43C | 0.111 |
| C36G G40A | 0.157 |
| C4A A51C | 0.277 |
| C18G G35U | 0.0415 |

| Variant | self-cleavage |
| --- | --- |
| C30U C49A | 0.698 |
| G50A G76C | 0.98 |
| G2C C32G | 0.0554 |
| G40U U65C | 0.7 |
| C48U A83U | 0.475 |
| A16U C61U | 1.04 |
| C22U C61A | 0.641 |
| U23C A83C | 0.302 |
| C14U G39A | 0.284 |
| A56C U60A | 0.937 |
| C57G C61A | 1.03 |
| U27G C33A | 0.185 |
| C58A U69A | 1.07 |
| C33A G59C | 0.521 |
| C13U A78C | 0.119 |
| C4A C57U | 0.237 |
| G59A A70G | 1.2 |
| G2A U79G | 0.089 |
| C21U U47C | 0.271 |
| G11U G54A | 0.313 |
| C18G C21U | 0.128 |
| C3U C13A | 0.138 |
| C4G G39U | 0.0346 |
| U47G G68A | 0.831 |

| Variant | self-cleavage |
| --- | --- |
| G17A C62A | 0.886 |
| G39U A70U | 0.831 |
| C3G C32G | 0.0282 |
| C18A G59A | 0.228 |
| C26A A87G | 0.864 |
| G59A A87C | 0.974 |
| C64A A70G | 0.749 |
| G25C C57U | 0.219 |
| C48G C84G | 0.646 |
| C4G U60A | 0.332 |
| G31C U47G | 0.383 |
| G25U A70G | 0.0875 |
| C61A G73U | 0.353 |
| A43U | 0.546 |
| G34U A51C | 0.0707 |
| U9A G11A | 0.539 |
| G25A C36U | 0.153 |
| C7G C85U | 0.32 |
| C14A G76C | 0.969 |
| G38U C41U | 0.623 |
| C3G G28A | 0.0326 |
| G6U G38U | 0.0308 |
| G2U G76U | 0.0762 |
| C48G G68A | 0.723 |

| Variant | self-cleavage |
| --- | --- |
| A42C U79G | 0.151 |
| C44G G82A | 0.309 |
| G40A A83C | 0.272 |
| A45G A77G | 0.867 |
| A56U C84U | 0.808 |
| U9A G67A | 0.937 |
| G6A C18U | 0.148 |
| C24U G54U | 0.618 |
| G2U C48U | 0.0563 |
| C32A C57G | 0.389 |
| C49U A71G | 1.16 |
| G5C U37A | 0.104 |
| C48G G53C | 0.776 |
| U72C G81A | 0.356 |
| A8G G25C | 0.175 |
| G68A G80C | 0.286 |
| A8C G80U | 0.07 |
| C41A G52C | 0.928 |
| C14A U46A | 0.199 |
| C3A G34C | 0.0903 |
| A70G G73U | 0.138 |
| C4U A43U | 0.332 |
| C61G G73U | 0.327 |
| G29A G68C | 0.111 |

| Variant | self-cleavage |
| --- | --- |
| C32U U72G | 0.494 |
| G25A C85A | 0.237 |
| C24A U69A | 0.635 |
| G68U C86U | 1.05 |
| G25U C49G | 0 |
| G11A U12A | 0.0831 |
| C21U G50C | 0.115 |
| A45C C86G | 0.465 |
| G2C C64G | 0.0804 |
| G40C U69C | 0.158 |
| A16C U60G | 0.939 |
| C18G G67C | 0.203 |
| C24U C30U | 0.142 |
| C30A C33A | 0.0615 |
| U46A C48U | 0.739 |
| C62U C86G | 0.831 |
| U9G G55U | 1.05 |
| U46A A51C | 0.831 |
| U12C G55U | 0.59 |
| C58A A77U | 0.78 |
| G2A G6U | 0.0683 |
| C24G U72A | 0.0437 |
| C57G A87C | 0.98 |
| A77C A83G | 0.156 |

| Variant | self-cleavage |
| --- | --- |
| U20A G53A | 0.122 |
| C24U A87U | 0.696 |
| U23A U69A | 1.01 |
| A42U G82C | 0.264 |
| G40A U79A | 0.513 |
| C33A C63G | 0.283 |
| G11A C33A | 0.151 |
| C22A C48U | 0.433 |
| G11U G68C | 0.297 |
| C18G G28C | 0.0573 |
| C21A G82C | 0.104 |
| C14G C33G | 0 |
| C33G G39C | 0.0386 |
| C61U U69C | 0.972 |
| C22U A87C | 0.665 |
| A51C A71G | 0.918 |
| G5U G31U | 0.277 |
| U46G A70C | 0.665 |
| U79A G82A | 0.227 |
| U27G C30A | 0.458 |
| G52C U69G | 0.914 |
| G11U | 0.366 |
| G59C C62U | 1.12 |
| G74C G82U | 0.179 |

| Variant | self-cleavage |
| --- | --- |
| C4G C84G | 0 |
| G34U U60C | 0.175 |
| G11C C58A | 0.378 |
| G2U A70U | 0.0548 |
| G40C A83G | 0.163 |
| A8G C66A | 0.886 |
| A78U C86U | 0.309 |
| U60C G76C | 1.16 |
| C63G G76C | 0.967 |
| C32U G53U | 0.811 |
| U9C C44A | 0.594 |
| U20A G28A | 0.145 |
| C24G C33G | 0.0475 |
| G25U G38C | 0.0554 |
| A42C C62U | 0.157 |
| A8G G52U | 0.849 |
| A8U C36G | 0.125 |
| C7G G31U | 0.745 |
| A71G C75G | 0.0755 |
| G11U G35C | 0.0449 |
| G17A C24A | 0.089 |
| C24A G68C | 0.628 |
| C3G C19G | 0.0326 |

Reference: the RNAGym collection of RNA variant scans (doi:10.7554/elife.80360)
